Measurements: paper PMC3695782

Target: HIV-1 reverse transcriptase WT (Human immunodeficiency virus type 1) (UniProt P04585+P04585)
Experiment: EMSA
Conditions: EFdA-MP at primer 3' end; Footprinting: 120 mM sodium cacodylate pH 7, 20 mM NaCl, 6 mM MgCl2, 1 uM EFdA-TP, 7 min pre-incubation with dTTP, then 1 mM ammonium iron sulfate 5 min …

Work on T/P-EFdA-MP (gel shift) yielded a binding signal (fold stronger than K65R) of 1.3.
